Here are results for 3 variants from IntAct's records for PubMed 19008854.

B1: Antiviral innate immune response effector IFIT1 (Homo sapiens), P09914 (parent)
chain: MSTNGDDHQVKDSLEQLRCHFTWELSIDDDEMPDLENRVLDQIEFLDTKYSVGIHNLLAYVKHLKGQNEEALKSLKEAENLMQEEHDNQANVRSLVTWGNFAWMYYHMGRLAEAQTYLDKVENICKKLSNPFRYRMECPEIDCEEGWALLKCGGKNYERAKACFEKVLEVDPENPESSAGYAISAYRLDGFKLATKNHKPFSLLPLRQAVRLNPDNGYIKVLLALKLQDEGQEAEGEKYIEEALANMSSQTYVFRYAAKFYRRKGSVDKALELLKKALQETPTSVLLHHQIGLCYKAQMIQIKEATKGQPRGQNREKLDKMIRSAIFHFESAVEKKPTFEVAHLDLARMYIEAGNHRKAEENFQKLLCMKPVVEETMQDIHFHYGRFQEFQKKSDVNAIIHYLKAIKIEQASLTRDKSINSLKKLVLRKLRRKALDLESLSLLGFVYKLEGNMNEALEYYERALRLAADFENSVRQGP
partner: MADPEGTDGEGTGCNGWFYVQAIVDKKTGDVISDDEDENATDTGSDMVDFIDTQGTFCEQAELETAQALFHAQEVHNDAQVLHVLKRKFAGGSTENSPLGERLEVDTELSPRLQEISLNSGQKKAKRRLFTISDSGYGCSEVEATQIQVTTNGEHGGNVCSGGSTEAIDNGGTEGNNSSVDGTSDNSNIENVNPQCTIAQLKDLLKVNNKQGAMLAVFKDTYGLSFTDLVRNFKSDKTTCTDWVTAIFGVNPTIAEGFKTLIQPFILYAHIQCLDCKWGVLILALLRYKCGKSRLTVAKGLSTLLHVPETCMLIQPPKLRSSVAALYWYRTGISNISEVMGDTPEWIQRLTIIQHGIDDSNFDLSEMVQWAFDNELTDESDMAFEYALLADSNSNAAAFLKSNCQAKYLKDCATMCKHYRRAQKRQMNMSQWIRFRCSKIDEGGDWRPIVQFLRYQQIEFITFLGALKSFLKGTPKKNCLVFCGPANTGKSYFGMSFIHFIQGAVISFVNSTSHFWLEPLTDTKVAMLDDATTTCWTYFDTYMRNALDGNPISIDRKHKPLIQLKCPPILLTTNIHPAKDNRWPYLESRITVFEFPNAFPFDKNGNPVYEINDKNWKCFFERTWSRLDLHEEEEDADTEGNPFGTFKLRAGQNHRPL

In this assay the parent is B1. As to conditions: with ve1_hpv18 E1, P06789.
Regarding L118R, the “effect of a mutation on the interaction” value is “disrupting interaction”.

For the variant A114T, the “effect of a mutation on the interaction” value was “disrupting interaction”.

On to V121E, for which the “effect of a mutation on the interaction” value was “disrupting interaction”.
